# In patent EP3583122A1 (dated 2019):
# Changes are numbered by the printed parent chain. Names may count otherwise.
# B1: PE-87 H100A (antibody, V domains shown)
# VH: QVQLVQSGVTLVQPGGSLRVSCAASGFTFSSYAMSWVRQAPGKGLEWVSAISGLGGSTYYADSVKGRFTISRDNSKNTLYLQMNSLRAEDTAVYYCAKDARVWAAGYHFDYWGQGALVTVSS
# VL: DIVLTQSPSTLSASVGDRVTITCRASQSISSWLAWYQQKPGEAPKLLISDASSLESGVPSRFSGSGSGTEFTLTISSLQPDDFATYYCQQYYSSPTFGGGTKVEIK
# B2: PE-87 Y107A (antibody, V domains shown)
# VH: B1 VH with A100H, Y107A
# VL: B1 VL
# B3: PE-87 G106A (antibody, V domains shown)
# VH: B1 VH with A100H, G106A
# VL: B1 VL
# B4: PE-87 V102A (antibody, V domains shown)
# VH: B1 VH with A100H, V102A
# VL: B1 VL
# B5: PE-87 H108A (antibody, V domains shown)
# VH: B1 VH with A100H, H108A
# VL: B1 VL
# B6: PE-87 Y111A (antibody, V domains shown)
# VH: B1 VH with A100H, Y111A
# VL: B1 VL
# B7: PE-87 R101A (antibody, V domains shown)
# VH: B1 VH with A100H, R101A
# VL: B1 VL
# B8: PE-87 D110A (antibody, V domains shown)
# VH: B1 VH with A100H, D110A
# VL: B1 VL
# B9: PE-87 F109A (antibody, V domains shown)
# VH: B1 VH with A100H, F109A
# VL: B1 VL
# B10: PE-87 W103A (antibody, V domains shown)
# VH: B1 VH with A100H, W103A
# VL: B1 VL
# B11: PE-87 D99A (antibody, V domains shown)
# VH: B1 VH with D99A, A100H
# VL: B1 VL
# B12: mAb PE-87 (antibody, V domains shown)
# VH: B1 VH with A100H
# VL: B1 VL
# Biological target: T1, SUDV GP on rVSV particles (Sudan virus (SUDV), UniProt Q66814 33-676)
# T1 sequence: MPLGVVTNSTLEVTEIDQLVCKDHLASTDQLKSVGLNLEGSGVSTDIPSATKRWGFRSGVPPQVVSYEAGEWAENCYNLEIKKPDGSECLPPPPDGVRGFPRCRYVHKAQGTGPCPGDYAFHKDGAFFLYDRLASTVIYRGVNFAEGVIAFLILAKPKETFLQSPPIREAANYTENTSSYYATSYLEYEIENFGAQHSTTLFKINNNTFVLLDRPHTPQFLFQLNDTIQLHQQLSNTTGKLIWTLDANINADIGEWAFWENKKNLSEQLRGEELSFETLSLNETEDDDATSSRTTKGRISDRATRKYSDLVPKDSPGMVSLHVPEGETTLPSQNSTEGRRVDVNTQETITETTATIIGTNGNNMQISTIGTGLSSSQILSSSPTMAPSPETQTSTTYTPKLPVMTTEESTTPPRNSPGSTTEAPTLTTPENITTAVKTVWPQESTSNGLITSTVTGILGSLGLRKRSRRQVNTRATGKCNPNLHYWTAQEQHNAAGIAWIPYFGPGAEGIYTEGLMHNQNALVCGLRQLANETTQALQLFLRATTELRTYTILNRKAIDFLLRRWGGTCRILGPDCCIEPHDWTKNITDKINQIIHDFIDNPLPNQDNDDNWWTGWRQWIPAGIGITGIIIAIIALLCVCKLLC
# Experiment: cell-based or functional assay
row,Binder,"IC50, half-maximal neutralization of viral infectivity (rVSV-GP) [nM]"
1,B1,1
2,B2,> 350
3,B3,0.9
4,B4,1.1
5,B5,2.1
6,B6,0.8
7,B7,1.5
8,B8,1.5
9,B9,2.1

# Biological target: T2, RESTV GP on rVSV particles (Reston virus (RESTV), UniProt Q66799 34-677)
# T2 sequence: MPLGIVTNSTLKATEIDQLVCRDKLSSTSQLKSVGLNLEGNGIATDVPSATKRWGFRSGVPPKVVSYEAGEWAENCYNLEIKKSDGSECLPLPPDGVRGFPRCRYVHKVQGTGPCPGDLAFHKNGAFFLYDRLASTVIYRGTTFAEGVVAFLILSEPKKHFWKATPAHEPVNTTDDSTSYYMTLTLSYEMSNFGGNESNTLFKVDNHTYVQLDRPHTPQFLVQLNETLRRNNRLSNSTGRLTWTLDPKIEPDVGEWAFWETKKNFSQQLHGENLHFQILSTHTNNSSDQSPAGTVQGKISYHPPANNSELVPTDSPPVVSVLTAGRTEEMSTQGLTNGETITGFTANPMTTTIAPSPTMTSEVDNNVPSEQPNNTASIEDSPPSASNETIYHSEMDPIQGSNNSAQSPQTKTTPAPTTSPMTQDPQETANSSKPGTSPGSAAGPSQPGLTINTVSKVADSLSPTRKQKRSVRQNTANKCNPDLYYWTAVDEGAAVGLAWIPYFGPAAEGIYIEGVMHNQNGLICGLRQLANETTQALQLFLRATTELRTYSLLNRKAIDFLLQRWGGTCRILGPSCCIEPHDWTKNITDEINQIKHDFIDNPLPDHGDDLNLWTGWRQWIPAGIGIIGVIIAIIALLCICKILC
# Experiment: cell-based or functional assay
row,Binder,"IC50, half-maximal neutralization of viral infectivity (rVSV-GP) [nM]"
1,B1,0.2
2,B2,1.3
3,B3,0.2
4,B4,0.2
5,B5,0.5
6,B6,0.1
7,B7,0.2
8,B8,0.4
9,B9,0.4

# Biological target: T3, TAFV GP on VSV pseudotype particles (Tai Forest virus (TAFV), UniProt Q66810 33-676)
# T3 sequence: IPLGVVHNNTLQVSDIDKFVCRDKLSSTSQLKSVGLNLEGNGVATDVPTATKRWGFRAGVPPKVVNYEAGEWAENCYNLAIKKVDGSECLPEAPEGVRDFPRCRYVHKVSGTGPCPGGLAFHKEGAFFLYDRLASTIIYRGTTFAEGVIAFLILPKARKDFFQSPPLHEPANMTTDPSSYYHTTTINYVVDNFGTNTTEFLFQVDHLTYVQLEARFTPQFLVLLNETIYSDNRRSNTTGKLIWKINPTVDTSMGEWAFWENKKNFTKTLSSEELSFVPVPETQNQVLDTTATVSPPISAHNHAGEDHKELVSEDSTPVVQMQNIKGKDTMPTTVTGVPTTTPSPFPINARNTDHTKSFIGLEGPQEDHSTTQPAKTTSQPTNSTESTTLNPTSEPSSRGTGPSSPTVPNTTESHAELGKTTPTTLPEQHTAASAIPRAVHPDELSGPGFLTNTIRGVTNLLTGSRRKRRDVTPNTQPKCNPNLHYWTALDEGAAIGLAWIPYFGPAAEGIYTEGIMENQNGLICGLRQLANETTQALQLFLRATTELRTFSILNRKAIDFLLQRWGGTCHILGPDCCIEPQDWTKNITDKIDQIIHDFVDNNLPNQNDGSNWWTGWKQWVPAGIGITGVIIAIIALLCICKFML
# Experiment: cell-based or functional assay
row,Binder,"IC50, half-maximal neutralization of viral infectivity (rVSV-GP) [nM]"
1,B1,0.8
2,B2,0.8
3,B3,0.8
4,B4,1
5,B10,> 150
6,B5,2.2
7,B6,1.1
8,B7,1.9
9,B8,2.1
10,B9,2.8
11,B11,> 350

# Biological target: T4, EBOV GP on rVSV particles (Ebola virus (EBOV), UniProt Q05320 33-676)
# T4 sequence: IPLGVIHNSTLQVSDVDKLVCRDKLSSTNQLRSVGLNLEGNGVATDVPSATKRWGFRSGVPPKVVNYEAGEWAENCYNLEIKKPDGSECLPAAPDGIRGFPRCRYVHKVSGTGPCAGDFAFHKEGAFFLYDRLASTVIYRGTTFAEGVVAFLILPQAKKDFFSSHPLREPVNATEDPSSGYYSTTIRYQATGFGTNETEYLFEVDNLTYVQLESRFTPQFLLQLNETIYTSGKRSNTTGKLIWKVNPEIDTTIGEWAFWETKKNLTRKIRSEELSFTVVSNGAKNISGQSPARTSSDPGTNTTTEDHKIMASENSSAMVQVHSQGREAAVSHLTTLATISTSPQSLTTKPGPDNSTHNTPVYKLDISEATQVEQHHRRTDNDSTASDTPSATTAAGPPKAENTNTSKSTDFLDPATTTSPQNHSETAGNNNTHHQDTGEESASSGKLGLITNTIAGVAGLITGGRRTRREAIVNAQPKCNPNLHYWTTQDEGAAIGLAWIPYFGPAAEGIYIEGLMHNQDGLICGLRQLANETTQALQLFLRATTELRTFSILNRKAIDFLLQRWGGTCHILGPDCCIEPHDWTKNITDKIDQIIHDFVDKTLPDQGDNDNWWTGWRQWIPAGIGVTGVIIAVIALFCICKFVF
# Experiment: cell-based or functional assay
row,Binder,"IC50, half-maximal neutralization of viral infectivity (rVSV-GP) [nM]"
1,B1,1
2,B2,3
3,B3,0.8
4,B4,0.6
5,B5,3.2
6,B6,0.8
7,B7,3.2
8,B8,2
9,B9,4.2
10,B11,> 500

# Biological target: BDBV GP on rVSV particles (Bundibugyo virus (BDBV))
# Experiment: cell-based or functional assay
row,Binder,"IC50, half-maximal neutralization of viral infectivity (rVSV-GP) [nM]"
1,B1,0.4
2,B2,0.8
3,B3,0.4
4,B4,0.2
5,B10,> 200
6,B5,0.6
7,B6,0.4
8,B7,0.4
9,B8,0.9
10,B9,0.3

# Biological target: EBOV GPCL (cleaved soluble EBOV GP) (Ebola virus (EBOV), UniProt Q05320 33-650)
# Experiment: BLI (OctetRed), IgG on anti-human Fc sensors, GPCL in solution, 1:1 fit
row,Binder,Kd [nM]
1,B12,< 0.001
